Assay results: publication PMC12412624, “Engineered Cas12j‐8 is a Versatile Platform for Multiplexed Genome Modulation in Mammalian Cells”
Changes are numbered by the printed parent chain.

What was measured:
[1] = system: T1, dCas12j-8 D313R D313R;D369A;E567A;D658A (bacteriophage (metagenome)); conditions: HEK293T cells; panel 1c (compare within a panel only); scale: mean GFP / mean GFP of wild type, printed, no background subtraction
T1 sequence: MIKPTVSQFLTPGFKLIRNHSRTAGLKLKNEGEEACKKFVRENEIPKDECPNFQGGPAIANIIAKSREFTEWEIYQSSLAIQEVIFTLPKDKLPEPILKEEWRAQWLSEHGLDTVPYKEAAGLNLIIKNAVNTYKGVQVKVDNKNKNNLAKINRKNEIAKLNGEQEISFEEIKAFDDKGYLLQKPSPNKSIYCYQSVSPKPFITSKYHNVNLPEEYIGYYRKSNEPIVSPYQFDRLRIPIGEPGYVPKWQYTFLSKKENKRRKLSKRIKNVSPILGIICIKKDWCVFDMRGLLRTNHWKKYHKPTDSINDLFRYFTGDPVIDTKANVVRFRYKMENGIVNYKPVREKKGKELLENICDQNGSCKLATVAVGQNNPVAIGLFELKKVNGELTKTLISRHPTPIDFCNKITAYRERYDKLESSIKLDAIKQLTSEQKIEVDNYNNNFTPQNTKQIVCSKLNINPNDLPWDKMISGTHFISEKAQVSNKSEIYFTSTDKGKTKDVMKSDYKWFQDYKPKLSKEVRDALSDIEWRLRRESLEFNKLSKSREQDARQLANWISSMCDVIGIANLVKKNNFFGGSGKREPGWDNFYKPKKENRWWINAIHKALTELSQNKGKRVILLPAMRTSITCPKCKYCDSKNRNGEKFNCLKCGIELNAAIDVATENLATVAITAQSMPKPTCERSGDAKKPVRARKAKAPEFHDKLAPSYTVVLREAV

[2] = system: T2, dCas12j-8 E258R+D313R E258R;D313R;D369A;E567A;D658A (bacteriophage (metagenome)); conditions: HEK293T cells; panel 1d (compare within a panel only); scale: mean GFP / mean GFP of wild type, printed, no background subtraction
T2 sequence: T1 sequence with E258R

[3] = system: T3, dCas12j-8 D512R D512R;D369A;E567A;D658A (bacteriophage (metagenome)); conditions: HEK293T cells; panel 1c (compare within a panel only); scale: mean GFP / mean GFP of wild type, printed, no background subtraction
T3 sequence: T1 sequence with R313D, D512R

[4] = system: T4, dCas12j-8 E119R E119R;D369A;E567A;D658A (bacteriophage (metagenome)); conditions: HEK293T cells; panel 1c (compare within a panel only); scale: mean GFP / mean GFP of wild type, printed, no background subtraction
T4 sequence: T1 sequence with E119R, R313D

Sequence: CUUUCAAGACUAAUAGAUUGCUCCUUACGAGGAGACACUCCCUAUCAGUGAUAGAG / TTNACTCCCTATCAGTGATAGAG / CTCTATCACTGATAGGGAGTNAA [TetO]
- binding signal [1]: 1.59
- binding signal [2]: 3.3
- binding signal [3]: 1.07
- binding signal [4]: 1.08
